Measured values: a protein production outcome set (Wang et al. 2014)
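Note: failed if final PepcDB status was selected cloned or expressed and not failed if soluble or beyond.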

Assay: label from the status in PepcDB records
With “MKLKHKRDDKMRFDIKKVLELAEKDFETAWRETRALIKDKHIDNKYPRLKPVYGKPHPVMETIERLRQAYLRMGFEEMINPVIVDEMEIYKQFGPEAMAVLDRCFYLAGLPRPDVGLGNEKVEIIKNLGIDIDEEKKERLREVLHLYKKGAIDGDDLVFEIAKALNVSNEMGLKVLETAFPEFKDLKPESTTLTLRSHMTSGWFITLSSLIKKRKLPLKLFSIDRCFRREQREDRSHLMSYHSASCVVVGEDVSVDDGKVVAEGLLAQFGFTKFKFKPDEKKSKYYTPETQTEVYAYHPKLGEWIEVATFGVYSPIALAKYNIDVPVMNLGLGVERLAMIIYGYEDVRAMVYPQFYEYRLSDRDIAGMIRVDKVPILDEFYNFANELIDICIANKDKESPCSVEVKREFNFNGERRVIKVEIFENEPNKKLLGPSVLNEVYVYDGNIYGIPPTFEGVKEQYIPILKKAKEEGVSTNIRYIDGIIYKLVAKIEEALVSNVDEFKFRVPIVRSLSDINLKIDELALKQIMGENKVIDVRGPVFLNAKVEIK” the protein production was “not failed”.
With “MKLKILLLTILTLGAMTVHAQKITGDWKGMLSIPQANMELELIFHITGEGADLSTTMDVPAQGATGIPVEKTSFADGKLTLSAAALQFTFKGTLSGNTIEGNVEQMGFSLPLTLQRFESKLPGNTALPSTEEELKALAALDKGNYKYKVEDYFAKPKASAFQLSPNGKYLSYMEKDDAGKRHVYVKEIATGTVKRAIEEKDELIKGYGWINDERLFFVMDKGGNENYHLFASNIDGSNTRDLTPFDGVKASILNMLKEQKDYMIISMNKNNPQIFEPYKLNVVTGELTQLYENKDAANPIQGYEFDKDGELRGYSRLVNGIESELYYKDLATGEFRLLKKTHWDDTFGVIAFNYASKNKDEAYVLTNLDSDKTRIVLYDLKQNKIIREIFANEDYDVSGLHLSRKRNYEIDLMAYEGEKSVVVPVSATYKELHKLMEKEFKGKEFSVVDYDDDETILLIAVQSDKLYGTYYQFDTRTKKFTLLYDLMPQLKEEDMAEMRPIKFKSRDGLTIHGFITLPKAALEGKKVPLIVNPHGGPQGIRDSWGFNPETQLFASRGYATLQVNFRISGGYGKEFLRAGFKQIGRKAMDDVEDGVRYAISQGWVDPDRIAIYGASHGGYATLMGLVKTPDLYACGVDYVGVSNIYTFFDSFPEYWKPFKEMVKEIWYDLDNPEEAAIAKEVSPFFQIDKINKPLFVVQGANDPRVNINESDQIVTALRARGFEVPYMVKYNEGHGFHREENSMELYRAMLGFFAKHLKK” the protein production was “failed”.
With “MKLLLALMLFMTFFAHAADPEPGSQYLQAAEAGDRRAQYFLADSWLSYGDLNKAEYWAQKAADSGDADACALLAQIKITNPVSLDYPDAKKLAEKAANAGSKVGEITLARILVNTQAGRPDYPKAISLLQKASEDLDNDSAVDAQMLLGLIYANGVGIAADDEKAAWYFKRSSAISRTGYSEYWAGMMFLNGEPGFIEKNKQKALHWLNLSCLEGFDTGCEEFETLTNG” the protein production was “failed”.
With “MKLLLVGEVRDGRVTAETAELFGFAACFSAEVSMVLAGSTDDLPSFEGKLYRADGVNAFDLACHKRLVLAAVEREQPDAVVFLHSSHGWELAPRVAFAMQSAQVSGVVGLDDGGYVVESCNGKMRRTVKPLTDRVVLTLQLGAFDAPAMAGIPEVTALDVEPDSTIEFLDCVQPERGIDLTRAGVIVSAGRGVGSAERVELVRALADALGGEVGASRPVVDAGWLERARQVGSSGQSVSPALYVACGISGAIQHLAGMKGSGFVLAINTDRDTPITSVADVLAVADVAEFLSALTAAIRARR” the protein production was “failed”.
In the case of “MKLLREMLIVVFIYFLGEFISKSFIHSVPGNIIGMLILLVLLCTKVVKVESIDCVAQFFLDHLAFFFVPAGVGLMTSVGLLEGNVLKLLFICIASTFVVIGVTGLVVQALIRRKEKKLLGDEVNE”, the protein production is reported as “failed”.
For “MKLLVVDDSSTMRRIIKNTLSRLGYEDVLEAEHGVEAWEKLDANADTKVLITDWNMPEMNGLDLVKKVRSDSRFKEIPIIMITTEGGKAEVITALKAGVNNYIVKPFTPQVLKEKLEVVLGTND”, the protein production was “failed”.
In the case of “MKLMDVHVLFSGGKDSSLSAVILKKLGYNPHLITINFGVIPSYKLAEETAKILGFKHKVITLDRKIVEKAADMIIEHKYPGPAIQYVHKTVLEILADEYSILADGTRRDDRVPKLSYSEIQSLEMRKNIQYITPLMGFGYKTLRHLASEFFILEEIKSGTKLSSDYEAEIRHILKERGESPEKYFPEHKQTRVVGLKKEI”, the protein production is reported as “not failed”.
For “MKLPHALSHWFPHKYAIDAKRLGDERTLAWSNLGYWADTSDYKTACRQLADGLADAVQLSSTDRLLDLGCGQGASLQHWVEHYQIQSLCAVELQLDHVKRIQHAFPQLEKMIQGSFLDLRPDTFKPHFDVVMCIDAAYHSALTSFLTAVGSVLKSKGRLGFHYLLLSEKWTQLPVWQRQKYKYLLKAADVELDDLADVTTTEHTLRAQGFDQIQIVDMTTDVFGGFARYMASRPYHSKQNIDERKIRATAKLCQYLCDQGIVRYVQIAATKQ”, the protein production was “failed”.
For “MKLPKALNEATAGAALKYHIKRALERSHSISDFSKNLELSTQKSHFSNNTLKIIEELNNGVKQASEEIKEKARDFSNQKLTNEQIKDLLNNAEIPTSGRDAITFGVNNLNPEIVEFLHKNNKKMIIEKASNKELELLKDANFKHPENIRASLDHDAIAHILKRHGVNSVNVRNGEIPITNEDIANYRYIVNNADAILRTLDNENKELISAFKQINGYAVVVEQAINKKNELVLKTMYKSKGDYKDNNAYKKFSSTHTLNADAKVNHRLSSYSGATENTTQKDLIDQENLLKTSENLNESTPKPTNLSPLEQANAEKLAKLESEKLESEKEFLKAKEQEATRKAALKKKLEHERGNAGNIESQTKIEVGEDIPTQTQAQLPKSRVRLNEREIYDLDYAIVKAKDLKPSFTTGGTQKRTDMNEEQIKSIAENFDPKKIFGSGGFEDLPIILHDGQVIAGNHRIQGMLNFTPKSRFSYERAIKEYYHIDLKPDELLVRVPHKRLNNTEINNLAASSNQGRFNSESDHAIAVLSHYEAKLKELDQKLDADSIYSLKNIVAKNLNFDKATHPNVTDSNLALLMFNMPRTKTQGIELLNRWKKEFSNDIKSYEKVKKMFVDNAGSFHNLIHDLNFPKVSLNAYLSDIMDRSFANLKNYQSTSESLKDLSEKFYKTSSLEMFEKSDQSTSDISEILGGAIARFARFDDPSKALFEALRSDNIKKGLKDYKIADVTKDMFNADSKEFKDIDIYDFTHYLLMVNREPNENNPILKRLIEAVKDMQKESEKGIKQKLETPSEWGHNYSEFKGDGLGAINKLLETKKGFVAGAFHKEGLGDIDLVYGNSKYGLEHIFNRRESDAIDKGMSKEEAKKYALKIINNIPNIISNGKLSKDNLGRLSIEFENQRVGLNDSWKGETLNNRWVITSYEIDKSRNGLIESPLAPNYKGKDTNPLNLDSPNPTTKN”, the protein production was “failed”.
In the case of “MKLSSNNAETMESLRSERNQYRILVDITNSVLAHLDMDGLISEVSKEIHRFFGLNHISLMLCRTSSQNSHEGILYSSRYQTGKSVIRQQRKFSSANNKAEEIIHQNKPVLIDINKEDQDDVLIKRLVKQNMQTALLLPLAFNRKPLGLLILAHEISSVFTEETCQLLQQIAARIGIAIENAAAYEEITHLKDS”, the protein production is reported as “failed”.
With “MKLTLRKKLLEKVENTTETPMLILSVVYVVVALLPDIAVLSPDDLEFLDGLLWIVWGIFATELLVKIFVSPKPLQYMMQNWPDVLIVAMPFLRPLRFLRILLVLPKAWRQTKSVLRQKTFSFIGLTSLSTVLLSAAFVYLVEKGTPSPINSYADALWWAMSTITTVGYGDMYPVTGFGRGVAVFLMLTGITLFGLLTASVASFFVEDDTAKQDHLSLNLLLEKNQQLETQLNQLVETQQPRKRFHLASYRRQLAERETVRKNQKPKRRRIKLPSQDNRNA” the protein production was “failed”.
With “MKLTPKELDKLMLHYAGELAKKRKEKGIKLNYVEAVALISAHIMEEARAGKKTAAELMQEGRTLLKPDDVMDGVASMIHEVGIEAMFPDGTKLVTVHTPIEANGKLVPGELFLKNEDITINEGKKAVSVKVKNVGDRPVQIGSHFHFFEVNRCLDFDREKTFGKRLDIASGTAVRFEPGEEKSVELIDIGGNRRIFGFNALVDRQADNESKKIALHRAKERGFHGAKSDDNYVKTIKE” the protein production was “failed”.
With “MKLVEHYIMRGTRRLVLIIVGFLIFIFASYSAQRYLTEAANGTLALDVVLDIVFYKVLIALEMLLPVGLYVSVGVTLGQMYTDSEITAISAAGGSPGRLYKAVLYLAIPLSIFVTLLSMYGRPWAYAQIYQLEQQSQSELDVRQLRAKKFNTNDNGRMILSQTVDQDNNRLTDALIYTSTANRTRIFRAGSVDVVDPSPEKPTVMLHNGTAYLLDHQGRDDNEQIYRNLQLHLNPLDQSPNVKRKAKSVTELARSAFPADHAELQWRQSRGLTALLMALLAISLSRVKPRQGRFSTLLPLTLLFIAIFYGGDVCRTLVANGAIPLIPGLWLVPGLMLMGLLILVARDFSLLQKFSR” the protein production was “failed”.
For “MKLVTYNIQYGIGLDGQYDVARIADAVRGADVVALQEVTRNNPRNGGRDMVAEIGEALPDYFAVYGSNFEANIGSRIENGRAITTTFQLGNMMLSKTPIHLSRNLLLPRSRSFEMMNFQRGALEALIETPLGFIRFYSIHLDHRSPVERASQIQFLRRRLLNYALEGGALSGVAEIGLPELPHPEAFVAMGDFNMLAGSPEYVELAGRPDHQFGMPLTADFAVDAAVRLNVTGDDLASWVDPKDPANTSRHKRIDYVFTSASPARSLQHLWVDHQATGSDHLPVWAELG”, the protein production was “failed”.
With “MKMDTGALTFQQKIYWLVKQIPLGRVATYGQIAALCGWPRHGRYVGYALYRVAPNSDIPWHRVVNAQGKISYAPQRRGTDELQRWRLAAEGIIFTAGLEHHHHHH” the protein production was “failed”.
For “MKMEARQKQNSFTSKMQKIVNHRAFTFTVIALILFNALIVGIETYPRIYADHKWLFYRIDLVLLWIFTIEIAMRFLASNPKSAFFRSSWNWFDFLIVAAGHIFAGAQFVTVLRILRVLRVLRAISVVPSLRRLVDALVMTIPALGNILILMSIFFYIFAVIGTMLFQHVSPEYFGNLQLSLLTLFQVVTLESWASGVMRPIFAEVPWSWLYFVSFVLIGTFIIFNLFIGVIVNNVEKAELTDNEEDGEADGLKQEISALRKDVAELKSLLKQSK”, the protein production was “failed”.
In the case of “MKMKHAFGPIILACVLFFIIILIPSKSLVSLISDKKVEDAATSLQKEKLQSVFLQQKMLENSQYLPMYGSSEFLRMDAYHPSNYFKVNPAGFTPYLIGIGGTQSLAHILNMTSTIDELEGKKVVFVLSPQWFTKTGVSQGDFTNNFSKQQAYHFIFNDKMNVEMKKQIAKRLLDYKVVQEDDILKNSLEGIVYNDTKHNIKAGLVKPLAYMHRNILDHRDLFNSIFKIEPMKEKTNVGLRSISWVDARKHAEEEGKAESTTNTFGIENPYYYKHNLKKKLKGLKNFRVNESYEESPEYDDLQIVLNIFKEKNVKPLFISVPVNGPWYDYAGFPKERREVYYKKVREQVEKAGYPVVDFSGHEYDKYFLKDTIHLGWKGWIYFDEAVQNFYNEKLEHHHHHH”, the protein production is reported as “failed”.
With “MKMMDANEIISFIQKSEKKTPVKVYIKGDLKEVTFPETVQAFVNKKSGVLFGEWSEIKTILDENSKYIVDYVVENDRRNSAIPMLDLKGIKARIEPGAIIRDHVEIGDNAVIMMNATINIGAVIGEGSMIDMNAVLGGRATVGKNCHVGAGAVLAGVIEPPSAKPVIVEDDVVIGANVVVLEGVTVGKGAVVAAGAVVTEDVPPYTVVAGTPARVIKEIDEKTKAKTEIKQELRQLNPEK” the protein production was “failed”.
With “MKMMDANEIISFIQNSTKSTPVKVYVKGELEGINFGESAKAFINGNTGVVFGEWSEIQTAIEENQSKIEDYVVENDRRNSAIPMLDLKNIKARIEPGAIIRDQVEIGDNAVIMMGASINIGSVIGEGTMIDMNVVLGGRATVGKNCHIGAGSVLAGVIEPPSAKPVVIEDDVVIGANAVVLEGVTVGKGPVVAAGAIVVNDVEPYTVVAGTPAKKIKDIDEKTKGKTEIKQELRQL” the protein production was “not failed”.
